Data taken from paper PMC12589613.

Target: MDA5ΔN (residues 287–1025) (human) (UniProt Q9BYX4)
Sequence (Q9BYX4 287-1025, stated change not applied): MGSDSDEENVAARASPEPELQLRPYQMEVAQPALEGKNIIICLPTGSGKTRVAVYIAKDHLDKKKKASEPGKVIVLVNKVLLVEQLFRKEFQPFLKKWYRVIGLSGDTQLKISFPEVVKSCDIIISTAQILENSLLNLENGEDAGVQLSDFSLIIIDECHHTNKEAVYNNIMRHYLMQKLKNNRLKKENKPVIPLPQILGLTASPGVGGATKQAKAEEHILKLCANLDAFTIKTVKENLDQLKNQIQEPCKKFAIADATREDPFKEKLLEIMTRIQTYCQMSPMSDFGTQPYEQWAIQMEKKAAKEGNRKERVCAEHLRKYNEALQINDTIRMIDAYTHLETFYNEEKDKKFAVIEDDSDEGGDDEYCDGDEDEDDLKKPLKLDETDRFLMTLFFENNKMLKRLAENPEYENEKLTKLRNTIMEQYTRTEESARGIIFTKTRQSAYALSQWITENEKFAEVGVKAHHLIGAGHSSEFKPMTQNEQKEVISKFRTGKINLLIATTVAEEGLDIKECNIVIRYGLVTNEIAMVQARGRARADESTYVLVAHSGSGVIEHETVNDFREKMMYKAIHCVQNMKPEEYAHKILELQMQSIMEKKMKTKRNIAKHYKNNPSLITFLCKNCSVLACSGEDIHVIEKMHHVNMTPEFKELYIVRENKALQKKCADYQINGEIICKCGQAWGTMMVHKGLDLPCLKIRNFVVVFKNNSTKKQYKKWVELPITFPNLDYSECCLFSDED

- proportion of MDA5ΔN translocation events that were stopped (immobile) on 11.6-kb dsRNA with LGP2(intermut), smTIRF: 23%
B1: LGP2(E116A, E117A, D603A) (natural protein)
chain: MELRSYQWEVIMPALEGKNIIIWLPTGAGKTRAAAYVAKRHLETVDGAKVVVLVNRVHLVTQHGEEFRRMLDGRWTVTTLSGDMGPRAGFGHLARCHDLLICTAELLQMALTSPEAAEHVELTVFSLIVVDECHHTHKDTVYNVIMSQYLELKLQRAQPLPQVLGLTASPGTGGASKLDGAINHVLQLCANLDTWCIMSPQNCCPQLQEHSQQPCKQYNLCHRRSQDPFGDLLKKLMDQIHDHLEMPELSRKFGTQMYEQQVVKLSEAAALAGLQEQRVYALHLRRYNDALLIHDTVRAVDALAALQDFYHREHVTKTQILCAERRLLALFDDRKNELAHLATHGPENPKLEMLEKILQRQFSSSNSPRGIIFTRTRQSAHSLLLWLQQQQGLQTVDIRAQLLIGAGNSSQSTHMTQRDQQEVIQKFQDGTLNLLVATSVAEEGLDIPHCNVVVRYGLLTNEISMVQARGRARADQSVYAFVATEGSRELKRELINEALETLMEQAVAAVQKMDQAEYQAKIRDLQQAALTKRAAQAAQRENQRQQFPVEHVQLLCINCMVAVGHGSDLRKVEGTHHVNVNPNFSNYYNVSRDPVVINKVFKAWKPGGVISCRNCGEVWGLQMIYKSVKLPVLKVRSMLLETPQGRIQAKKWSRVPFSVPDFDFLQHCAENLSDLSLD
